Reference: patent US20260077065A1, “Compositions and Methods for Assessing Kinase Activity” (The Board of Trustees of the Leland Stanford Junior …, priority 2022, published 2026)

Assays:
ERK [1] = assay: bKiMBI bioluminescence in cancer cell lines U87, U87-EGFRvIII, SK-OV-3; type: cell-based, human; conditions: SK-OV-3 cells
Source text: Endogenous ERK activity in these cell lines appeared to be only partially activated, as co-expressing caMEK further suppressed basal KiMBI signal. […] This provides additional evidence that KiMBI responds positively to ERK inhibition, and argues against inhibitors directly binding KiMBIs to enhance NanoLuc assembly or catalysis. […] Positive KiMBI responses must actually overcome this tendency of kinase inhibitors to suppress bioluminescence.
In vitro cell-based bioluminescent assay. Cells were seeded into 96-well Lumitrac plate (Greiner Bio-One) at a density of 1.5-2×10^4 cells per well. After 24 h, cells were transiently transfected with KiMBI-expressing plasmids (5-10 ng per well) with or without caMEK-expressing plasmids (50 ng per well, empty pcDNA3.1 as negative control to keep total transfected DNA amount consistent) using lipofectamine 3000 (Invitrogen) following manufacturer's instructions. […] Then, for assaying luminescence, Nano-Glo live cell assay system (Promega) was used following manufacturer's instructions. Time-lapse live luminescence was recorded on Safire-2 microplate reader (Tecan) with 100 ms integration and one read per min for 20 min. Luminescence spectrum was measured on a Varioskan LUX multimode microplate reader (Thermo Scientific) using the spectral scanning protocol with 1 s integration for each wavelength at 400-680 nm (1 nm per data point).

ERK [2] = assay: ERK KiMBI cell-based bioluminescent assay, HEK293A cells co-transfected with caMEK; conditions: FIG. 5d
Source text: To develop a luciferase reporter protein whose activity can be activated by ERK inhibition, it was hypothesized that NanoLuc luciferase catalytic activity could be modulated through large ERK-induced conformational changes. Created and tested were fusion proteins of various topologies (FIG. 2a) comprising the NanoLuc NanoBiT fragments, an ERK substrate peptide from Cdc25C^7, and a proline-directed WW phospho-binding domain (WW)^8 from Pin1. In particular, an arrangement was postulated in which binding of phosphorylated substrate (pSub) to WW would force the SmBiT fragment to adopt an unfavorable conformation for LgBiT complementation, would show low luminescence with active ERK and high luminescence with inhibited ERK (FIG. 2b). […]
In vitro cell-based bioluminescent assay. […] Then, for assaying luminescence, Nano-Glo live cell assay system (Promega) was used following manufacturer's instructions. Time-lapse live luminescence was recorded on Safire-2 microplate reader (Tecan) with 100 ms integration and one read per min for 20 min. Luminescence spectrum was measured on a Varioskan LUX multimode microplate reader (Thermo Scientific) using the spectral scanning protocol with 1 s integration for each wavelength at 400-680 nm (1 nm per data point).

B1: bKiMBI: ERK blue KiMBI, WW F25A; SEQ ID NO:2 (protein)
chain: MVSKGEELIKENMRSKLYLEGSVNGHQFKCTHEGEGKPYEGKQTNRIKVVEGGPLPFAFDILATHFMYGSKVFIKYPADLPDYFKQSFPEGFTWERVMVFEDGGVLTATQDTSLQDGELIYNVKVRGVNFPANGPVMQKKTLGWEPSTETMYPADGGLEGRCDKALKLVGGGHLHVNFKTTYKSKKPVKMPGVHYVDRRLERIKEADNETYVEQYEHAVARYSNLGGGFTLEDFVGDWEQTAAYNLDQVLEQGGVSSLLQNLAVSVTPIQRIVRSGENALKIDIHVIIPYEGLSADQMAQIEEVFKVVYPVDDHHFKVILPYGTLVIDGVTPNMLNYFGRPYEGIAVFDGKKITVTGTLWNGNKIIDERLITPDGSMLFRVTINSIMADEEKLPPGWEKRMSRSSGRVYYANHITNASQWERPSGNSSSGGKNGQGEPARVTGYRLFEPDSPRTPVDKAKLSFQFP
ERK [1]
  bKiMBI response (brightness increase) after ERK inhibition: ~2.5 fold

B2: tKiMBI: ERK KiMBI with N-terminal tdTomato; SEQ ID NO:4 (protein)
chain: MVSKGEEVIKEFMRFKVRMEGSMNGHEFEIEGEGEGRPYEGTQTAKLKVTKGGPLPFAWDILSPQFMYGSKAYVKHPADIPDYKKLSFPEGFKWERVMNFEDGGLVTVTQDSSLQDGTLIYKVKMRGTNFPPDGPVMQKKTMGWEASTERLYPRDGVLKGEIHQALKLKDGGHYLVEFKTIYMAKKPVQLPGYYYVDTKLDITSHNEDYTIVEQYERSEGRHHLFLGHGTGSTGSGSSGTASSEDNNMAVIKEFMRFKVRMEGSMNGHEFEIEGEGEGRPYEGTQTAKLKVTKGGPLPFAWDILSPQFMYGSKAYVKHPADIPDYKKLSFPEGFKWERVMNFEDGGLVTVTQDSSLQDGTLIYKVKMRGTNFPPDGPVMQKKTMGWEASTERLYPRDGVLKGEIHQALKLKDGGHYLVEFKTIYMAKKPVQLPGYYYVDTKLDITSHNEDYTIVEQYERSEGRHHLFRLEDFVGDWEQTAAYNLDQVLEQGGVSSLLQNLAVSVTPIQRIVRSGENALKIDIHVIIPYEGLSADQMAQIEEVFKVVYPVDDHHFKVILPYGTLVIDGVTPNMLNYFGRPYEGIAVFDGKKITVTGTLWNGNKIIDERLITPDGSMLFRVTINSIMADEEKLPPGWEKRMSRSSGRVYYFNHITNASQWERPSGNSSSGGKNGQGEPARVTGYRLFEPDSPRTPVDKAKLSFQFP
ERK [2]
  time to full induction of reporter by kinase inhibitor: ~1 h
